These results are taken from paper PMC12297659, “In situ structure of the mouse sperm central apparatus reveals mechanistic insights into asthenozoospermia” (Cell Research, 2025).

Holding throughout (experiment): cryo-EM structure; in situ cryo-electron tomography with subtomogram averaging of about 200 nm cryo-FIB lamellae of wild-type mouse sperm; local maps of 5.5 Å to 18 Å; AlphaFold2 models fitted into the density
The target in data set [1] is SPATA17 (mouse (endogenous in sperm)) (UniProt Q9D552).
In data set [2] the target is GMCL1 (BTBD16) (mouse (endogenous in sperm)) (UniProt Q920G9).
Data set [3] deals with the molecule itself.

SPATA17 (mouse (endogenous in sperm)), sequence (Q9D552 whole entry): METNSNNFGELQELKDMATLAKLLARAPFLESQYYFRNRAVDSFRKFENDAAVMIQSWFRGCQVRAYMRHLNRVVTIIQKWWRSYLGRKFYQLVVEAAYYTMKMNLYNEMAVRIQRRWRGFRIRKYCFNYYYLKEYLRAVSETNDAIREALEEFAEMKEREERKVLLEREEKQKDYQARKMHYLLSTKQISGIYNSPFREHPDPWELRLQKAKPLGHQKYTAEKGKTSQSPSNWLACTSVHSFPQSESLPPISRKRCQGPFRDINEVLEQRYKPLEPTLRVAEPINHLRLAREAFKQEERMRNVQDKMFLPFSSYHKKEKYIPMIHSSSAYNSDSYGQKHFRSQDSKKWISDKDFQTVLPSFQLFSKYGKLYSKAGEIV

As a reminder, the stoichiometry N is a count of units in the complex or per binding partner. Consider “calmodulin (CaM) (from UniProt P0DP26 1-149) (natural protein)”, for which, in data set [1], the stoichiometry N amounted to 3. “GMCL1 (BTBD16) (from UniProt Q920G9 1-524) (natural protein)”: in data set [2], the stoichiometry N is 2.

B1: CFAP70 (natural protein, mouse (endogenous in sperm), UniProt D3YVL2 1-1141, looked up)
chain: MDQTSSTTKIVHITVTNGYDLKGFKGDTPVTFVRAEFNQTVLGDSSKVTVSPEGTAKYNFTSNIDLSPDGGGALDDLAHKPLFLTVTEVLPKEKKQKDEKTLILGQAVVDLLPLLEGEESFETTVPLHPVPGSPLETPLPGSKQCSLDVKVFVAEPLLTPAQVSASNLLKVTLEAAYSVPESFIPVGPQQNYMVGLQVPSVGEKDYTMIFKNGNLKLGGEKEPVPRPKKWPIANILAPGASNIPDEFIVGGPYEEEEGELNHPEDREFRNQAECTKKRIVWDLESRCFLHPFAVASFQKRIADCRLWPVEITRVPLVVMPKAKPGKLEKIDDENQLSFHGVAYINMVPLLYPGVKKIRGAFHVYPYLDGTVFEKTKCLFSLFRDTGHHLVQNNKAGGLNSPLSKPLSKNLKEEKPGKDKDTEGRPRLGELQAPSIKSQSSDTPLESEAPLSHNLEGQQYIEAGTYIVLEIQLEKALVPKRMPEELARRVKEMIPPRPPLTRRTGGAQKAVSDYHTQIKSISRAILNEYYRMFGKQGPKLESDIDNETMEERKCQLNYELNCSGKYFAFKEQLKHAVVKIVREKYLKTTAFESQEELQTFISELYVFLVDQMHVALNQAVPDDVPSSTSTIQTSSEQLRLFAFEAEVNEKFEIAAMYYEERLVREPQNLENWLDYGAFCLLTEDNIKAQECFRKALSLNESHVDSLLLCGVLAILLENYEQAEIFFEDATCLEPTNVIAWTLLGLFYEIQNNDIRMEMAFHEAFKQLQARTLQTKLKSTVTIENMEEGVKVEPSFGPWGVVQESTTAIKTEGLSGMRPQSSHQLSPHTNMELHPQPQGPNTALSSLDEFLEESPKAQSESQEPMATGQPLEPSLVQRSSNALLKELTSKKDISKCQDSSAFSPPTQHVIAQPPVTIFMETIRFLMKVNAVQFVHRVLAHELLCPQGGPSCEYYLVLAQTHLLKKDFAKTEEYLQQAAQMDYLNPNVWGVKGHLYFLSGNHAEAKECYERTISFVVDASEMHFIFLRLGHIYLEEKEYENAKRTYMHACKRSPSCLTWLGLGIACYRLEELTEAEDALSEANALNNCNAEVWAYLALVCLKVGRQLEAEQAYKYTIKLKLKDQALLEEIHTVQEMVGFGNPSF
notes: CFAP70, mouse; The CFAP70 dimer was predicted with AlphaFold2 Multimer before fitting; source: endogenous, in intact mouse sperm (cryo-FIB lamellae)
For the molecule B1, in data set [3], the “stoichiometry N” value stood at 2.

B2: SPAG16 (natural protein, mouse (endogenous in sperm), UniProt Q8K450 1-639, looked up)
chain: MAAPSGVPPLRVLEELGIGLSPTGEVTEAVTSEGAYYLEQVTITETSEDECEYEEIPDDNFSIPEGEEDLEKAIHIIGEQARDIHILEQQTILPARNVMQEAIEDFLCNFLIKMGMTRTLDCFQAEWYELIQKKGSDFKGLGNVPDVYSQVMLLETENKNLKKELKHFKQAAEKAKEDLLRTQKERDFHRMHHKRIVQEKNKLIADLKGLKLHYASYEPTIRVLHEKHHALLKEKMLTSLERDRAVGKISGLQATLKNIDMGHIQVPVIKGSYESASITRESGDRAGHSCEKENSSEGPTQKSLREAREEVGYKSKLKNEKKDSEFPVDMQPDPNVTSCTENVSAAKFDYKLNNIFRLHELPVSCIVMHPCRDYLISCSEDRLWKMVGLPQGNVLLTGSGHTDWLSGCCFHPSGSKLATSSGDSTIKLWDLNKGECTLTLEGHNHAVWSCTWHSCGDFVASASLDMTSKIWDVNSERCRYTLYGHTDSVNSIEFFPFSNILLTASADKTLSVWDARTGKCEQSLYGHMHSVNDATFTPRGHIIASCDARGVTKLWDFRKLIPIVSIDVGPSSGNEVNFDQSGRVLAQASANGIIHLLDLKSGQIHKLVGHESEVHSVVFSHLGENLYSGGSDGTIRLWI
notes: SPAG16, mouse, with a coiled-coil domain and a C-terminal β-propeller domain; Adjacent copies dimerise through the coiled-coil domain; also called PF20 homolog; source: endogenous, in intact mouse sperm (cryo-FIB lamellae)
Regarding B2, the “stoichiometry N” value in data set [3] stood at 2.
